Test results from patent US11242370B2, “Neuregulin-4 compounds and methods of use” (Eli Lilly and Company, priority 2019, dated 2022).
Numbering of substitutions follows the chain as printed. Names and notes keep the numbering of the source. Blank lines part the entries; values can stand above or below the molecule they belong to.

Molecular target: T1, human HER2/HER4 (Homo sapiens, UniProt Q15303)
T1 construct: expressed in transfected cells
Test: Human HER2/HER4 phospho-ERK 1/2 assay, purified proteins, CHO-K1 cells
Format: cell-based
Conditions: for % Maximal NRG1 activity: maximal signal relative to native human NRG1 per plate; for EC50: purified proteins, phospho-ERK1/2
Procedure: A cell based assay utilizing CHO-K1 cells overexpressing human or rat HER receptors is used to determine activity of NRG4 compounds. CHO-K1 cells (ATCC) are grown in DMEM-F12 3:1 with 5% FBS with 20 mM HEPES, 40 μg/mL L-Proline, lx antibiotics and were split 1:5 every 2-3 days with TripLE Express (Gibco). Cells are transfected with plasmid DNA encoding HER receptors in pairs (hHER2-3, hHER2-4, rHER2-3 and rHER2-4) with Fugene 6 (Promega) according to the manufacturer's instructions. […] Transfected cells are selected with Puromycin (12 ug/ml) and Hygromycin (1 mg/ml) for 3-4 weeks and clonal lines are obtained by limited dilution cloning into 96 well plates. Clonal lines are selected by appropriate gene expression of HER2, HER3 or HER4 by Taqman method. Lines with appropriate receptor expression are confirmed by NRG1 induced phospho-ERK 1/2 responses. Clones are grown up, harvested, aliquoted into cryovials and then frozen under liquid nitrogen for long-term storage.
A phospho-ERK1/2 activity assay is utilized with CHO-K1 cells overexpressing human or rat HER receptors to determine potencies and selectivity of purified NRG4 compounds. CHO-K1 cell lines expressing the human or rat HER receptors are cultured with selection medium (DMEM-F12 3:1 with 5% FBS with 20 mM HEPES, 40 μg/mL L-Proline, 1× antibiotics, 12 μg/mL puromycin, 1 mg/mL Hygromycin B). On Day −1 (the day before phospho-ERK1/2 assay), cells are washed once with PBS, detached with enzyme free cell dissociation solution (GIBCO cat #13151-014), and resuspended in plating medium (DMEM-F12 3:1 with 20 mM HEPES, lx antibiotics, 0.2% FBS). Cells are plated in a 96-well Poly-D-Lysine coated plate (BD cat #354640) at 10,000 cells per 0.1 mL per well. Cells are cultured in a tissue culture incubator at 37° C. 5% CO2 overnight. On Day 1 (the day of pERK1/2 assay), plates are incubated at room temperature for 30 min. The culture media are removed followed by addition of 504, ligand at various concentrations diluted in PBS-20 mM HEPES-0.005% BSA. Native human NRG1 and NRG4 peptides are purchased from Reprokine (Tampa, Fla.). The stimulation time is 30 min (except for hHER2-4 1H6 line in which 15 min is used for stimulation). At the end of stimulation, ligands are removed and 704, Lysis buffer (made according to manufacturer's recipe, Perkin Elmer cat #ALSU-PERK-A10K) is added. Plates are incubated at room temperature for 10 min on plate shaker with 350 rpm agitation, then on ice for 1 hour without shaking. 304, of cell lysis is transferred to a 96-well white Optiplate (Perkin Elmer cat #6002290) for phospho-ERK1/2 assay. Briefly 7.5 μL acceptor beads are added to 30 μL lysis in Optiplate. The plate is covered with aluminum foil and incubated at room temperature for 1 hour on plate shaker with 350 rpm agitation. Then 7.5 μL donor beads are added and the plate is covered with aluminum foil and incubated at room temperature for 2 hours on plate shaker with 350 rpm agitation or at 4° C. for overnight (warm up plate at room temperature for 2 h before reading). Alpha signal data are obtained on an Envision instrument (Alpha Technology-compatible plate reader). Donor beads and acceptor beads are made according to assay protocol. The data shown are generated with either the AlphaScreen SureFire p-ERK1/2 (Thr202/Tyr204) assay kit (Cat #TGRES50k) or the AlphaLISA® SureFire® Ultra™ p-ERK 1/2 (Thr202/Tyr204) assay kit (Perkin Elmer cat #ALSU-PERK-A10K). The activity of the NRG1 peptide was similar in both types of assays. Raw data obtained from the Envision instrument is imported into GraphPad Prism software (version 7). The EC50 value is generated by a variable slope-four parameter dose response curve. The % of maximal NRG1 activity data are generated by expressing the average maximal raw data for the NRG4 compound over the average maximal raw data for the native human NRG1 per plate and multiplying by 100. Data are provided below in Tables 7-9. N values reflect number of independent assays run. […]

% Maximal NRG1 activity: 75 ± 4 (N = 8) % | EC50: 90.1 ± 33.2 nM
Molecule: WT NRG4: wild type human NRG4 (SEQ ID NO:1); parental hFcNRG4 in screening (Tables 4-6), native peptide from Reprokine in Tables 7-9 (DHEEPCGPSHKSFCLNGGLCYVIPTIPSPFCRCVENYTGARCEEVFL; listed as Homo sapiens)

% Maximal NRG1 activity: 100% | EC50: 0.67 ± 0.07 nM
Molecule: WT NRG1: wild type human NRG1; native peptide purchased from Reprokine in Tables 7-9; comparator in the screening assays of Tables 4 and 6

B1: Example 10: NRG4 D1G/V22Q/E44K, (GGGGS)3 linker, SEQ ID NO: 19, fused to IgG Fc dimer SEQ ID NO: 6 and 7 (protein)
chain 1: GGGGSGGGGSGGGGSGHEEPCGPSHKSFCLNGGLCYQIPTIPSPFCRCVENYTGARCEKVFL
chain 2: ECPPCPAPPVAGPSVFLFPPKPKDTLMISRTPEVTCVVVDVSHEDPEVQFNWYVDGVEVHNAKTKPREEQFNSTFRVVSVLTVVHQDWLNGKEYKCKVSNKGLPAPIEKTISKTKGQPREPQVYTLPPSREEMTKNQVSLWCLVKGFYPSDIAVEWESNGQPENNYKTTPPVLDSDGSFFLYSKLTVDKSRWQQGNVFSCSVMHEALHNHYTQKSLSLSPG
chain 3: B1 chain 2 with W141S, L143A, Y182V
% Maximal NRG1 activity: 82 ± 4 (N = 8) % | EC50: 0.16 ± 0.02 nM
